Measurements: patent US20200040059A1

B1: variant PD-L2 IgV-Fc H15Q (Fc fusion, not shown: a dimerising Fc or GST; small tags and cut ends)
chain: FTVTVPKELYIIEQGSNVTLECNFDTGSHVNLGAITASLQKVENDTSPHRERATLLEEQLPLGKASFHIPQVQVRDEGQYQCIIIYGVAWDYKYLTLK
B2: variant PD-L2 IgV-Fc N24D (Fc fusion, not shown: a dimerising Fc or GST; small tags and cut ends)
chain: LFTVTVPKELYIIEHGSNVTLECDFDTGSHVNLGAITASLQKVENDTSPHRERATLLEEQLPLGKASFHIPQVQVRDEGQYQCIIIYGVAWDYKYLTLK
B3: variant PD-L2 IgV-Fc E44D (Fc fusion, not shown: a dimerising Fc or GST; small tags and cut ends)
chain: LFTVTVPKELYIIEHGSNVTLECNFDTGSHVNLGAITASLQKVDNDTSPHRERATLLEEQLPLGKASFHIPQVQVRDEGQYQCIIIYGVAWDYKYLTLK
B4: variant PD-L2 IgV-Fc V89D (Fc fusion, not shown: a dimerising Fc or GST; small tags and cut ends)
chain: LFTVTVPKELYIIEHGSNVTLECNFDTGSHVNLGAITASLQKVENDTSPHRERATLLEEQLPLGKASFHIPQVQVRDEGQYQCIIIYGDAWDYKYLTLK
B5: variant PD-L2 IgV-Fc Q82R, V89D (Fc fusion, not shown: a dimerising Fc or GST; small tags and cut ends)
chain: LFTVTVPKELYIIEHGSNVTLECNFDTGSHVNLGAITASLQKVENDTSPHRERATLLEEQLPLGKASFHIPQVQVRDEGQYRCIIIYGDAWDYKYLTLK
B6: variant PD-L2 IgV-Fc E59G, Q82R (Fc fusion, not shown: a dimerising Fc or GST; small tags and cut ends)
chain: LFTVTVPKELYIIEHGSNVTLECNFDTGSHVNLGAITASLQKVENDTSPHRERATLLEGQLPLGKASFHIPQVQVRDEGQYRCIIIYGVAWDYKYLTLK
B7: variant PD-L2 IgV-Fc S39I, V89D (Fc fusion, not shown: a dimerising Fc or GST; small tags and cut ends)
chain: LFTVTVPKELYIIEHGSNVTLECNFDTGSHVNLGAITAILQKVENDTSPHRERATLLEEQLPLGKASFHIPQVQVRDEGQYQCIIIYGDAWDYKYLTLK
B8: variant PD-L2 IgV-Fc S67L, V89D (Fc fusion, not shown: a dimerising Fc or GST; small tags and cut ends)
chain: LFTVTVPKELYIIEHGSNVTLECNFDTGSHVNLGAITASLQKVENDTSPHRERATLLEEQLPLGKALFHIPQVQVRDEGQYQCIIIYGDAWDYKYLTLK
B9: variant PD-L2 IgV-Fc S67L, I85F (Fc fusion, not shown: a dimerising Fc or GST; small tags and cut ends)
chain: LFTVTVPKELYIIEHGSNVTLECNFDTGSHVNLGAITASLQKVENDTSPHRERATLLEEQLPLGKALFHIPQVQVRDEGQYQCIFIYGVAWDYKYLTLK
B10: variant PD-L2 IgV-Fc S67L, I86T (Fc fusion, not shown: a dimerising Fc or GST; small tags and cut ends)
chain: LFTVTVPKELYIIEHGSNVTLECNFDTGSHVNLGAITASLQKVENDTSPHRERATLLEEQLPLGKALFHIPQVQVRDEGQYQCIITYGVAWDYKYLTLK
B11: variant PD-L2 IgV-Fc H15Q, K65R (Fc fusion, not shown: a dimerising Fc or GST; small tags and cut ends)
chain: LFTVTVPKELYIIEQGSNVTLECNFDTGSHVNLGAITASLQKVENDTSPHRERATLLEEQLPLGRASFHIPQVQVRDEGQYQCIIIYGVAWDYKYLTLK
B12: variant PD-L2 IgV-Fc H15Q, Q72H, V89D (Fc fusion, not shown: a dimerising Fc or GST; small tags and cut ends)
chain: LFTVTVPKELYIIEQGSNVTLECNFDTGSHVNLGAITASLQKVENDTSPHRERATLLEEQLPLGKASFHIPHVQVRDEGQYQCIIIYGDAWDYKYLTLK
B13: variant PD-L2 IgV-Fc H15Q, S67L, R76G (Fc fusion, not shown: a dimerising Fc or GST; small tags and cut ends)
chain: LFTVTVPKELYIIEQGSNVTLECNFDTGSHVNLGAITASLQKVENDTSPHRERATLLEEQLPLGKALFHIPQVQVGDEGQYQCIIIYGVAWDYKYLTLK
B14: variant PD-L2 IgV-Fc H15Q, R76G, I85F (SEQ ID NO 1500) (Fc fusion, not shown: a dimerising Fc or GST; small tags and cut ends)
chain: LFTVTVPKELYIIEQGSNVTLECNFDTGSHVNLGAITASLQKVENDTSPHRERATLLEEQLPLGKASFHIPQVQVGDEGQYQCIFIYGVAWDYKYLTLK
B15: variant PD-L2 IgV-Fc H15Q, T47A, Q82R (Fc fusion, not shown: a dimerising Fc or GST; small tags and cut ends)
chain: LFTVTVPKELYIIEQGSNVTLECNFDTGSHVNLGAITASLQKVENDASPHRERATLLEEQLPLGKASFHIPQVQVRDEGQYRCIIIYGVAWDYKYLTLK
B16: variant PD-L2 IgV-Fc I13V, H15Q, S67L, I86T (Fc fusion, not shown: a dimerising Fc or GST; small tags and cut ends)
chain: LFTVTVPKELYIVEQGSNVTLECNFDTGSHVNLGAITASLQKVENDTSPHRERATLLEEQLPLGKALFHIPQVQVRDEGQYQCIITYGVAWDYKYLTLK
B17: variant PD-L2 IgV-Fc I13V, H15Q, E44D, V89D (Fc fusion, not shown: a dimerising Fc or GST; small tags and cut ends)
chain: LFTVTVPKELYIVEQGSNVTLECNFDTGSHVNLGAITASLQKVDNDTSPHRERATLLEEQLPLGKASFHIPQVQVRDEGQYQCIIIYGDAWDYKYLTLK
B18: variant PD-L2 IgV-Fc I13V, S39I, E44D, Q82R, V89D (Fc fusion, not shown: a dimerising Fc or GST; small tags and cut ends)
chain: LFTVTVPKELYIVEHGSNVTLECNFDTGSHVNLGAITAILQKVDNDTSPHRERATLLEEQLPLGKASFHIPQVQVRDEGQYRCIIIYGDAWDYKYLTLK
B19: variant PD-L2 IgV-Fc I13V, E44D, Q82R, V89D (Fc fusion, not shown: a dimerising Fc or GST; small tags and cut ends)
chain: LFTVTVPKELYIVEHGSNVTLECNFDTGSHVNLGAITASLQKVDNDTSPHRERATLLEEQLPLGKASFHIPQVQVRDEGQYRCIIIYGDAWDYKYLTLK
B20: variant PD-L2 IgV-Fc I13V, Q72H, R76G, I86T (Fc fusion, not shown: a dimerising Fc or GST; small tags and cut ends)
chain: LFTVTVPKELYIVEHGSNVTLECNFDTGSHVNLGAITASLQKVENDTSPHRERATLLEEQLPLGKASFHIPHVQVGDEGQYQCIITYGVAWDYKYLTLK
B21: variant PD-L2 IgV-Fc I13V, H15Q, R76G, I85F (Fc fusion, not shown: a dimerising Fc or GST; small tags and cut ends)
chain: LFTVTVPKELYIVEQGSNVTLECNFDTGSHVNLGAITASLQKVENDTSPHRERATLLEEQLPLGKASFHIPQVQVGDEGQYQCIFIYGVAWDYKYLTLK
B22: variant PD-L2 IgV-Fc H15Q, S67L, R76G, I85F (Fc fusion, not shown: a dimerising Fc or GST; small tags and cut ends)
chain: LFTVTVPKELYIIEQGSNVTLECNFDTGSHVNLGAITASLQKVENDTSPHRERATLLEEQLPLGKALFHIPQVQVGDEGQYQCIFIYGVAWDYKYLTLK
B23: variant PD-L2 IgV-Fc H15Q, T47A, Q72H, R76G, I86T (Fc fusion, not shown: a dimerising Fc or GST; small tags and cut ends)
chain: LFTVTVPKELYIIEQGSNVTLECNFDTGSHVNLGAITASLQKVENDASPHRERATLLEEQLPLGKASFHIPHVQVGDEGQYQCIITYGVAWDYKYLTLK
B24: variant PD-L2 IgV-Fc H15Q, T47A, Q72H, R76G (Fc fusion, not shown: a dimerising Fc or GST; small tags and cut ends)
chain: LFTVTVPKELYIIEQGSNVTLECNFDTGSHVNLGAITASLQKVENDASPHRERATLLEEQLPLGKASFHIPHVQVGDEGQYQCIIIYGVAWDYKYLTLK
B25: variant PD-L2 IgV-Fc I13V, H15Q, T47A, Q72H, R76G (Fc fusion, not shown: a dimerising Fc or GST; small tags and cut ends)
chain: LFTVTVPKELYIVEQGSNVTLECNFDTGSHVNLGAITASLQKVENDASPHRERATLLEEQLPLGKASFHIPHVQVGDEGQYQCIIIYGVAWDYKYLTLK
B26: variant PD-L2 IgV-Fc H15Q, E44D, R76G, I85F (Fc fusion, not shown: a dimerising Fc or GST; small tags and cut ends)
chain: LFTVTVPKELYIIEQGSNVTLECNFDTGSHVNLGAITASLQKVDNDTSPHRERATLLEEQLPLGKASFHIPQVQVGDEGQYQCIFIYGVAWDYKYLTLK
B27: variant PD-L2 IgV-Fc H15Q, S39I, S67L, V89D (Fc fusion, not shown: a dimerising Fc or GST; small tags and cut ends)
chain: LFTVTVPKELYIIEQGSNVTLECNFDTGSHVNLGAITAILQKVENDTSPHRERATLLEEQLPLGKALFHIPQVQVRDEGQYQCIIIYGDAWDYKYLTLK
B28: variant PD-L2 IgV-Fc H15Q, N32D, S67L, V89D (Fc fusion, not shown: a dimerising Fc or GST; small tags and cut ends)
chain: LFTVTVPKELYIIEQGSNVTLECNFDTGSHVDLGAITASLQKVENDTSPHRERATLLEEQLPLGKALFHIPQVQVRDEGQYQCIIIYGDAWDYKYLTLK
B29: variant PD-L2 IgV-Fc N32D, S67L, V89D (Fc fusion, not shown: a dimerising Fc or GST; small tags and cut ends)
chain: LFTVTVPKELYIIEHGSNVTLECNFDTGSHVDLGAITASLQKVENDTSPHRERATLLEEQLPLGKALFHIPQVQVRDEGQYQCIIIYGDAWDYKYLTLK
B30: variant PD-L2 IgV-Fc H15Q, S67L, Q72H, R76G, V89D (Fc fusion, not shown: a dimerising Fc or GST; small tags and cut ends)
chain: LFTVTVPKELYIIEQGSNVTLECNFDTGSHVNLGAITASLQKVENDTSPHRERATLLEEQLPLGKALFHIPHVQVGDEGQYQCIIIYGDAWDYKYLTLK
B31: variant PD-L2 IgV-Fc H15Q, Q72H, Q74R, R76G, I86T (Fc fusion, not shown: a dimerising Fc or GST; small tags and cut ends)
chain: FTVTVPKELYIIEQGSNVTLECNFDTGSHVNLGAITASLQKVENDTSPHRERATLLEEQLPLGKASFHIPHVRVGDEGQYQCIITYGVAWDYKYLTLK
B32: variant PD-L2 IgV-Fc G28V, Q72H, R76G, I86T (Fc fusion, not shown: a dimerising Fc or GST; small tags and cut ends)
chain: FTVTVPKELYIIEHGSNVTLECNFDTVSHVNLGAITASLQKVENDTSPHRERATLLEEQLPLGKASFHIPHVQVGDEGQYQCIITYGVAWDYKYLTLK
B33: variant PD-L2 IgV-Fc I13V, H15Q, S39I, E44D, S67L (Fc fusion, not shown: a dimerising Fc or GST; small tags and cut ends)
chain: FTVTVPKELYIVEQGSNVTLECNFDTGSHVNLGAITAILQKVDNDTSPHRERATLLEEQLPLGKALFHIPQVQVRDEGQYQCIIIYGVAWDYKYLTLK

What was measured:
[1] = target: PD-1 (Homo sapiens (Human)) (UniProt Q15116); assay: flow cytometry, Jurkat/PD-1 cells
Chain of PD-1 (Homo sapiens (Human)) (Q15116 21-288 limits assumed): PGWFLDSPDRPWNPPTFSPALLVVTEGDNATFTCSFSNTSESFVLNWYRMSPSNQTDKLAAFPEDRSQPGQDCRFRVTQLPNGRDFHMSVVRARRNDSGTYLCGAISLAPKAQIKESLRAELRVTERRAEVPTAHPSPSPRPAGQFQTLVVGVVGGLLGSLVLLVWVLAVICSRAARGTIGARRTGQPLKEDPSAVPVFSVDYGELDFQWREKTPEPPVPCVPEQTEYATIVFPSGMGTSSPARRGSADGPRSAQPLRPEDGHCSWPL

[2] = target: PD-1 (Homo sapiens (Human)) (UniProt Q15116); assay: flow cytometry, Jurkat/PD-1 cells; vs wildtype PD-L2 IgV-Fc

Binder | MFI at 50 nM [1] | Fold increase over wildtype PD-L2 IgV-Fc [2] [fold]
B1 | 16000 | 1.63
B2 | 1410 | 0.14
B3 | 2930 | 0.3
B4 | 3360 | 0.34
B5 | 45000 | 4.57
B6 | 12700 | 1.29
B7 | 26100 | 2.65
B8 | 16000 | 1.62
B9 | 529 | 0.05
B10 | 6830 | 0.69
B11 | 13500 | 1.37
B12 | 12600 | 1.28
B13 | 47200 | 4.8
B14 | 2940 | 0.3
B15 | 65200 | 6.62
B16 | 21600 | 2.19
B17 | 24000 | 2.43

Binder | MFI at 50 nM [1] | Fold increase over wildtype PD-L2 IgV-Fc [2] [fold]
B18 | 71400 | 7.26
B19 | 45200 | 4.59
B20 | 10400 | 1.06
B21 | 4740 | 0.48
B22 | 2870 | 0.29
B23 | 32100 | 3.26
B24 | 16500 | 1.68
B25 | 73400 | 7.46
B26 | 2880 | 0.29
B27 | 45500 | 4.62
B28 | 25900 | 2.63
B29 | 31800 | 3.23
B30 | 40200 | 4.08
B31 | 4050 | 0.41
B32 | 5560 | 0.57
B33 | 63500 | 6.45
